From patent publication US20240067742A1 (4C BIOMED, published 2024)

T1: His-tagged human HVEM (human, UniProt Q92956 39-202)
T1 construct: extracellular domain; also called His-tagged HVEM (Acro Biosystems); HVEM extracellular domain peptide; not shown: His tag
T1 sequence (looked up): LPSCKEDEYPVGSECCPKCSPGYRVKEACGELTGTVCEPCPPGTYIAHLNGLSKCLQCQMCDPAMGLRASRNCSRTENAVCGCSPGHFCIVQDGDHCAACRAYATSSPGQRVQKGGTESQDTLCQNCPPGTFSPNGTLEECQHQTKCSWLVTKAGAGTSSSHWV

T2: HVEM on HVEM-positive melanoma cells (UniProt Q92956 39-283, limits assumed)
T2 sequence (looked up): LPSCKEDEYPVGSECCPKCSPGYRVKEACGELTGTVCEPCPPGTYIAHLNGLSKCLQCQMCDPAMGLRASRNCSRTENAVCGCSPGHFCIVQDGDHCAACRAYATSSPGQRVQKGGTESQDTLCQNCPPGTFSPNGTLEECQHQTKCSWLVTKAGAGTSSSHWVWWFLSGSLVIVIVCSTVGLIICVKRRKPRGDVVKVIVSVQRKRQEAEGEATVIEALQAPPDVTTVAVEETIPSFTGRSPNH

B1: H4-T57A (antibody, human IgG4 S228P, kappa, V domains shown)
VH: QVQLVQSGGGLVQPGGSLRLSCAASGFTFSSYAMSWVRQAPGKGLEWVSNIYSNPNRAYYADSVEGRFTISRDNSKNTLYLQMNSLRAEDTAVYYCAKAPGDYTAYFDYWGQGTLVTVSS
VL: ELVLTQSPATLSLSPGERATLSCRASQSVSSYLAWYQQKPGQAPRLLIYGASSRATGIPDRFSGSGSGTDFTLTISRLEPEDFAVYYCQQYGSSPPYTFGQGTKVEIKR
notes: H4 variant without the CDR-H2 glycosylation site; also called T57A antibody; T57A variant
B2: human recombinant HVEM (hHVEM) (receptor, UniProt Q92956 39-202, looked up)
chain: T1 sequence (looked up)
notes: Recombinant protein coated at 2.5 ug/ml; also called recombinant hHVEM; hHVEM coated plates

Key:
His-tagged human HVEM [1] = target: T1, His-tagged human HVEM; assay: Biacore KD to HVEM extracellular domain, IgG captured on Protein A, His-tagged HVEM as analyte; reference: Parental
Method: Affinity maturation: To improve binding affinity, the parental antibody was affinity matured using phage display. Heavy and/or light chain CDRs of variable domain regions were semi-randomized using oligonucleotide mutagenesis. Selections were performed using separate heavy and light chain phage libraries and decreasing concentrations of biotinylated His-tagged HVEM target to select the highest affinity binders from each library. Following four rounds of selections individual clones were screened as scFv supematants in a binding ELISA to identify lead candidates with signals greater than the parental scFv expressed in the same assay. Identified hits were converted into IgG and cloned into mammalian expression vectors. Plasmids encoding the affinity improved variants paired with the appropriate parental heavy or light chain, as well as the parental antibody, were transiently transfected small scale into HEK EBNA adherent cells (LGC Standards, Teddington, UK). At five days post-transfection, the supernatants were harvested, quantified by Octet (serial no. FB-30203) and analysed by Biacore single cycle kinetics.
Single Cycle Kinetics: To assess the binding of the affinity matured IgGs, single cycle kinetic analysis was performed on supernatants using a Biacore T200 (serial no. 1909913). Kinetic experiments were performed at 25° C. running Biacore T200 Control software V2.0.1 and Evaluation software V3.0 (Cytiva, Marlborough, USA). Antibodies were diluted in HBS-P+(Cytiva, Marlborough, USA) containing 1 mg/ml BSA to a final concentration of 1.0 μg/ml. Antibodies were loaded onto Fc2, Fc3 and Fc4 of the Protein A capture Sensor chip (Cytiva, Marlborough, USA). IgGs were captured at a flow rate of 10 μl/min to give an immobilisation level (RL) of ˜50 RU. The surface was then allowed to stabilize. Single cycle kinetics data was obtained using His-tagged HVEM (Acro Biosystems, Newark, USA) as the analyte at a flow rate of 40 μl/min. A two-fold dilution range from […] to 100 nM His-tagged antigen without regeneration between each concentration was used.

[2] = target: B2; assay: blocking ELISA: antibody titrated on plate-bound hHVEM in the presence of hBTLA, bound hBTLA detected (OD); the IC50 column has no unit, µg/ml is the unit of the x axis
His-tagged human HVEM [3] = target: T1, His-tagged human HVEM; assay: Biacore 8K multi-cycle kinetics, purified antibody captured on Protein A, His-tagged human HVEM as analyte; reference: Parental
Method: (§1) Multi-Cycle Kinetics: Multicycle kinetic analysis was performed on purified antibodies. Kinetic experiments were performed at 25° C. on a Biacore 8K. HBS-P+0.1% BSA (Cytiva, Marlborough, USA) was used as running buffer. Purified antibodies were diluted to 1.0 μg/mL in running buffer and at the start of each cycle, loaded onto Fc2, Fc3 and Fc4 of a Protein A sensor chip (Cytiva, Marlborough, USA). Antibodies were captured at a flow rate of 10 μl/min to give an immobilisation level (RL) of ˜ 100 RU. The surface was then allowed to stabilise. Multi-cycle kinetic data was obtained using His-tagged human HVEM as the analyte injected at a flow rate of 50 μl/min. A eight point, two-fold dilution range from 0.78 nM to 100 nM of antigen were prepared in running buffer. For each concentration, the association phases were monitored for 180 seconds and the dissociation phase was measured for 300 seconds. Regeneration of the sensor chip surface was conducted between cycles using two injections of 10 mM Glycine-HCl, pH 1.5.
(§2) First a multicycle kinetics Biacore affinity assay was performed to confirm the improved binding of the H4, T57A, T57G and T57N antibodies (FIG. 3A). Each purified antibody was captured to a Protein A sensor chip before increasing concentrations of antigen (hHVEM) were injected. The fold improvement in affinity was calculated by dividing the average KD of the parent antibody by the average KD for each variant antibody. […] A single-cycle kinetic Biacore assay was also performed with the H4 N55G, H4 N55S, H4 N55D, H4 N55Q, H4 N55E, and H4 T57E antibodies (FIG. 3B).

His-tagged human HVEM [4] = target: T1, His-tagged human HVEM; assay: Biacore 8K multi-cycle kinetics, purified antibody captured on Protein A, His-tagged human HVEM as analyte, 25 C
Method: as §1, §2

[5] = target: T2, HVEM on HVEM-positive melanoma cells; assay: cell-based or functional assay
hLIGHT-His = target: T3, hLIGHT-His (human, UniProt O43557 59-240); assay: ELISA, plate coated with hHVEM, antibody 10 µg/ml present, hLIGHT-His 2.5 µg/ml, detection with anti-LIGHT
T3 construct: Named only as hLIGHT-His; also called recombinant hLIGHT; not shown: exact limits of the vendor construct
T3 sequence (O43557 59-240 limits assumed): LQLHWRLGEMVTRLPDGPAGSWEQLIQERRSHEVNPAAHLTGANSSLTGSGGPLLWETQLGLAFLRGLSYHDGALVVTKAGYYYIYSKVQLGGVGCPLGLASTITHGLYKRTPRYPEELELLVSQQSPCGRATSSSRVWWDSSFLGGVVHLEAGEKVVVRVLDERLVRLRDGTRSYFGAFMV

Row | Binder | Fold improvement vs parental (KD) (His-tagged human HVEM [1]) [fold] | IC50 [2] [µg/mL] | Fold improvement (KD parent / KD variant) (His-tagged human HVEM [3]) [fold] | Kd (His-tagged human HVEM [4]) [nM] | increase in specific killing events (Caspase 3/7) in melanoma cells cocultured with autologous TILs, as compared to the isotype control, after nine hours [5] [%] | binding result (hLIGHT-His)
1 | B1 | 20.7 | 0.53 | 30.1 | 2.17 | 19 | 
2 | B2 |  |  |  |  |  | binds
